Molecular target: Aβ1-42 (UniProt P05067)
Sequence (P05067 whole entry, looked up, tested part not stated): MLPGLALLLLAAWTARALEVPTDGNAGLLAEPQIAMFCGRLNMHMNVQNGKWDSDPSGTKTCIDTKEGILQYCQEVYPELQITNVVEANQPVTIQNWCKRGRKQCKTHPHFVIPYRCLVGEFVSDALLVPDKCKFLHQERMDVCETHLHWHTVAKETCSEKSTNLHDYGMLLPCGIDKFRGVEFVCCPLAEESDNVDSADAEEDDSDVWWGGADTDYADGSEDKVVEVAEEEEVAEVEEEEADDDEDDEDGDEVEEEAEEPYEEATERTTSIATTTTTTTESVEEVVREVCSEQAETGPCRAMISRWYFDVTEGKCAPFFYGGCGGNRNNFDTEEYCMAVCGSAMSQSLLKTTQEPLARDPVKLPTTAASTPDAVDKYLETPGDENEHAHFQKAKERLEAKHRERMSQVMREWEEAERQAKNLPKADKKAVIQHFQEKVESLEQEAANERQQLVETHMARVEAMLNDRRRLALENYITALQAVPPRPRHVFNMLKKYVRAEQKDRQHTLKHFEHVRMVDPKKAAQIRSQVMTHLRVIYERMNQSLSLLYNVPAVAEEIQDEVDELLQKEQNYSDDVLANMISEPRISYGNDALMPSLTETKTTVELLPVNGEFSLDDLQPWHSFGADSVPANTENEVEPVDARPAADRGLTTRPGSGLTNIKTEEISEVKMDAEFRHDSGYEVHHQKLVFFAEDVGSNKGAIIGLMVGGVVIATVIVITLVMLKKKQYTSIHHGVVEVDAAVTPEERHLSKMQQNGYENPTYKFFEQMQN

Cathepsin L
proteolytic products analyzed with SELDI-TOF mass spectrometry: Incubating Aβ1-42 with CatL resulted in the dose-dependent generation of Aβ6-42 through proteolytic cleavage

Source: patent publication US20130273035
